Source: patent publication US8013125B2, “Metalloproteinase 9 and metalloproteinase 2 binding proteins” (Dyax Corp., priority 2008, dated 2011)
Entries after “also recorded” stand apart in the source; their conditions may differ. One block for each molecule: values may come before it.

How the values were obtained:
[1] = molecular target: T1, Human MMP-9 catalytic domain (Homo sapiens, UniProt P14780); assay: Ki determination with fluorogenic peptide substrate; type: biochemical; conditions: fluorogenic peptide substrates
T1 construct: Human MMP-9 catalytic domain (BIOMOL, SE-244); purchased BIOMOL SE-244
T1 sequence (P14780 107-449 limits assumed): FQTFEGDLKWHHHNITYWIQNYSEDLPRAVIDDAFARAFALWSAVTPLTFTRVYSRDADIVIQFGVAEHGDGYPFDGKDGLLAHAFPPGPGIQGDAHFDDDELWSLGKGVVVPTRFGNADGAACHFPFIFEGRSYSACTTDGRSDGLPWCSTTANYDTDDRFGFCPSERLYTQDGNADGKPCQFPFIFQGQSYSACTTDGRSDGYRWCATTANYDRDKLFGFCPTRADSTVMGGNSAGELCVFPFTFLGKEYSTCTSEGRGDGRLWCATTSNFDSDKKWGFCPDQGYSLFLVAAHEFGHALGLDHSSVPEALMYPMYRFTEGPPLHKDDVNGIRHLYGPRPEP
Protocol: (§1) This example characterized the interaction of the M0237-D02 hIgG1 with the human and mouse MMP-9. The Ki was measured and the inhibition mechanism was determined.
(§2) Materials: • Substrate: Mca -KPLGL-Dap(Dnp)-AR-NH2(SEQ ID NO: 1279) (M-2350) from BACHEM (521575). A 10mM stock solution was prepared in DMSO. • Enzymes: • Human MMP-9 catalytic domain (BIOMOL, SE-244). Enzyme concentration was measured by titration with TIMP-1 (2522-104) • Mouse MMP-9 (R&D, 909-MM), APMA-activated. • M0237-D02 hIgG1 : 2517-014. Dialysed against TCN. • TCNB: 50 mM Tris/HCl, 10 mM CaCl2, 150 mM NaCl, 0.05% Brij 35, pH 7.5. • 96-well black plates from Perkin Elmer (6005270) • Spectramax M2e to measure fluorescence emission of the substrate upon hydrolysis (temperature control set at 30° C.; λexc=328 nm and λem=393 nm)
(§3) The enzyme (final concentration=0.23 and 0.17 nM for the human and mouse MMP-9, respectively) was preincubated with various concentrations (0-50 nM) of M0237-D02 for 1 h at 30° C. The substrate was then added to a final concentration ranging from 5 to 40 μM and initial rates were recorded.
(§4) Each data point was measured in triplicate, and initial rates were averaged.
(§5) Averaged initial rates were plotted against the M0237-D02 concentration for each substrate concentration, and IC50's were calculated using the following equation: […]
(§6) The IC50 values were then plotted against the substrate concentration.

Mouse MMP-9 = molecular target: T2, Mouse MMP-9 (Mus musculus, UniProt P41245); assay: as above; type: biochemical; conditions: fluorogenic peptide substrates
T2 construct: purchased R&D 909-MM
T2 sequence (P41245 108-730): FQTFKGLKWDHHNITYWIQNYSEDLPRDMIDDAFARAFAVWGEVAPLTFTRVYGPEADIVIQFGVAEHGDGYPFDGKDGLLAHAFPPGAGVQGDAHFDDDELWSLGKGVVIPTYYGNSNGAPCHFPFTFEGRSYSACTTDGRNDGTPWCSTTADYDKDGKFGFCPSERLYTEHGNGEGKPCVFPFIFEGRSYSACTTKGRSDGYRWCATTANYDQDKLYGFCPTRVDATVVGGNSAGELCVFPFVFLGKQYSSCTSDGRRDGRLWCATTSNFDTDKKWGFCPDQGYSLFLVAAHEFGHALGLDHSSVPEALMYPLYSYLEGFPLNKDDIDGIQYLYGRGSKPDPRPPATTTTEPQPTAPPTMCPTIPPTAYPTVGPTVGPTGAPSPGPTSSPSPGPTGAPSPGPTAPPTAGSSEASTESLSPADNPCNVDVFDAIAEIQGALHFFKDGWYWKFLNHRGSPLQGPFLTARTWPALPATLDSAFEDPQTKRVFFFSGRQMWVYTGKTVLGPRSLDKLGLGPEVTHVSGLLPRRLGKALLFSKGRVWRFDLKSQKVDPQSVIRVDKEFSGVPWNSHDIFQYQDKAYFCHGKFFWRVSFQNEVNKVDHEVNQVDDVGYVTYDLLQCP
Protocol: as §1, §2, §3, §4, §5, §6

[2] = molecular target: T1, Human MMP-9 catalytic domain; assay: Biacore binding of analyte to coated antibody; conditions: 25° C.
Protocol: (§7) The non competitive inhibition model implies that the ternary complex enzyme-substrate-inhibitor can form. It is however possible that this complex cannot form with bigger substrates, in which case the antibody would behave as a competitive inhibitor. In order to address this issue, the ability of M0237-D02 antibody to bind to the h-MMP-9 when the enzyme is complexed to its natural inhibitor h-TIMP-1 was determined. The reasoning is that if the antibody cannot bind to the h-MMP-9/h-TIMP-1 complex, it would probably behave as a competitive inhibitor of this enzyme in the presence of bigger substrates.
(§8) Experiments were performed at 25° C. with the help of a Biacore 3000 instrument. The MMP-9 binding protein (M0166F10) and the M0237-D02 antibody were coated to a CM5 chip either via standard amine coupling or using an anti-Fc antibody surface. Then either the active, human MMP-9 catalytic domain (BIOMOL, SE-244), the human pro-MMP-9 (R&D, 911-MP), the human TIMP-1 (R&D, 970-TM) or a h-MMP-9/h-TIMP-1 complex were flowed over the antibody surfaces, and binding was recorded.

h-MMP-9/h-TIMP-1 complex = h-MMP-9/h-TIMP-1 complex (Homo sapiens, UniProt P14780); assay: Biacore binding of analyte to coated antibody; conditions: 25° C.
Chain of h-MMP-9/h-TIMP-1 complex (P14780 107-449 limits assumed): as the sequence (P14780 107-449 limits assumed) above
Chain of h-MMP-9/h-TIMP-1 complex (P01033 24-207 partner): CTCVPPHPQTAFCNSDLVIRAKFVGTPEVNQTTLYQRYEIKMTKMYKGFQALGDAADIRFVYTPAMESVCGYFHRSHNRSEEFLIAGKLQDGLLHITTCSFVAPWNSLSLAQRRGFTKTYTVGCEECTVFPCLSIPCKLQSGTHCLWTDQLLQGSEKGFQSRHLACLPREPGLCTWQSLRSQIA
Protocol: as §7, §8

human TIMP-1 = molecular target: T3, human TIMP-1 (Homo sapiens, UniProt P01033); assay: Biacore binding of analyte to coated antibody; conditions: Direct capture; 25° C.
T3 construct: purchased R&D 970-TM
T3 sequence (P01033 24-207): as the sequence (P01033 24-207 partner) above
Protocol: as §7, §8

human pro-MMP-9 = molecular target: T4, human pro-MMP-9 (Homo sapiens, UniProt P14780); assay: Biacore binding of analyte to coated antibody; conditions: Direct capture, 25° C.
T4 construct: the human pro-MMP-9 (R&D, 911-MP); purchased R&D 911-MP
T4 sequence (P14780 20-707 limits assumed): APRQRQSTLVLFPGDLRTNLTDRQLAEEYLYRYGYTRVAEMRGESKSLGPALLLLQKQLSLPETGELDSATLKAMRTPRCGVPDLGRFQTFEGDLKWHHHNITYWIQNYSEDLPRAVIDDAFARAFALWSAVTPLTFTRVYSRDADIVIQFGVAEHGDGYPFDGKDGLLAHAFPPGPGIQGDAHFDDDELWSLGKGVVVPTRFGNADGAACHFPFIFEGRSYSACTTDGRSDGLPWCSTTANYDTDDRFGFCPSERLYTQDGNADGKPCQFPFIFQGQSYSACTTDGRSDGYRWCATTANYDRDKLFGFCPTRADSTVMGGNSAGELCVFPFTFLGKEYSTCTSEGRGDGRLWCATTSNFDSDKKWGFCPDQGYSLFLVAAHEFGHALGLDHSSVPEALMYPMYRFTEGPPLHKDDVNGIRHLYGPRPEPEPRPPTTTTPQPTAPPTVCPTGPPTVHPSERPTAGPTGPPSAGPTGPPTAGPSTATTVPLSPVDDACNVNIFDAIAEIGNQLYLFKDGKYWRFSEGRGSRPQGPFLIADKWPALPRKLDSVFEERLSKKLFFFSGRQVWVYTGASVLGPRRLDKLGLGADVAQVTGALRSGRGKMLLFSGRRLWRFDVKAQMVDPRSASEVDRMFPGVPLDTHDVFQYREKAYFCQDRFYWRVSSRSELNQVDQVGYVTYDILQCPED
Protocol: as §7, §8

[3] = molecular target: T1, Human MMP-9 catalytic domain; assay: Inhibition progress curves and kinetic analysis; type: biochemical; conditions: 25° C.; for kobs: substrate 9 μM
Protocol: The kinetics of the interaction between M0237-D02 and the human MMP-9 were determined. The rates were determined using the following equation: […]
The second order rate constant for the association of the enzyme E and the inhibitor I (kon) and the first order rate constant for the dissociation of the complex El (koff) can be calculated from inhibition progress curves obtained at different inhibitor concentrations.
Materials: • Substrate: Mca -KPLGL-Dap(Dnp)-AR-NH2(SEQ ID NO: 1279) (M-2350) from BACHEM (521575). A 10mM stock solution was prepared in DMSO. • Human MMP-9 catalytic domain (BIOMOL, SE-244). • M0237-D02 hIgG1 : 2517-068. • All measurements were performed at 25° C. in TCNB: 50 mM Tris/HCl, 10 mM CaCl2, 150mM NaCl 0.05% Brij 35, pH 7.5. • 96-well black plates from Perkin Elmer (6005270) • Spectramax M2e to measure fluorescence emission of the substrate upon hydrolysis (λexc=328 nm and λem=393 nm)
The enzyme (at a final concentration ranging from 1.5 to 12.3 nM), the substrate (9 μM final) and the M0237-D02 antibody were mixed, and the fluorescence was immediately recorded in order to follow the hydrolysis of the substrate. The observed inhibition rate (kobs) was obtained by analyzing the progress curves with a single exponential. The value for kon and koff were calculated from the plot of the kobs vs. the antibody concentration using the following equation: kobs=kon[I]+koff
kobs was measured at four antibody concentrations (table below): […]

[4] = system: gelatinolytic activity (tumoral MMP-2-9) in Colo205 tumor sections; assay: Film in situ zymography (FIZ); type: biochemical, human; conditions: 500 nM, 37° C. overnight
Protocol: (§9) PBS-control treated tumors were screened with M0237-D02 for gelatinase expression using the FIZ approach. The tumors tested were Colo205 and MCF-7. Briefly, frozen slides of tumpor sections were dried at room temperature and 200 μl of in situ Zymo buffer (TCNB)+20 μg/ml of gelatin quenched substrate from molecular probes was added. The slides were incubate at 37° c. overnight in the presence of M0237-D02 at 500 nM or GM6001 used as a positive control at 100 μM. The substrate was washed in MilliQ (3 times) and the mounted slides were treated with anti-Fade+Dapi mounting medium.

[5] = system: gelatinolytic activity (tumoral MMP-2-9) in MCF-7 tumor sections; assay: Film in situ zymography (FIZ); type: biochemical, human; conditions: 500 nM, 37° C. overnight
Protocol: as §9

[6] = system: inflammatory cell infiltration into the carrageenan-stimulated mouse air pouch; assay: Carrageenan-stimulated mouse air pouch model; type: in vivo; conditions: FIG. 2
Text: (§10) The purpose of the following experiments were to determine the effect of 539A-M0237-D02 on inflammation and specifically on inflammatory cell infiltration into the carrageenan-stimulated mouse air pouch and on the arthritic index in collagen-induced arthritis (CIA) mice.
For the carrageenan-stimulated mouse air pouch model, subcutaneous injection of air into the hind flank or back of mice produces an air pouch in a week, the interior surface of which contains both fibroblast-like and macrophage-like cells. Inflammatory stimulation of the pouch results in leukocyte recruitment to the pouch and release of mediators (cytokines) into the exudate. Preventing inflammatory cell infiltration into the air pouch may translate into preventing inflammation of the synovium in rheumatoid arthritis.
The effect of 539A-M0237-D02 on inflammatory cell infiltration was compared to inflammatory cell infiltration indomethacin and a control (PBS). In addition, inflammatory cell recruitment was compared to an unstimulated mouse.

[7] = system: collagen-induced arthritis (CIA) mice; assay: Collagen-induced arthritis (CIA) mice; type: in vivo, mouse; conditions: CIA model, compared to untreated mice; FIG. 3
Text: as §10
The collagen-induced arthritis (CIA) was produced by the immunization of susceptible strains of mice with native type II collagen. The collagen was emulsified in Freund's complete adjuvant and injected subcutaneously. A booster injection of collagen in incomplete adjuvant was given IP 21 days after the initial immunization. The disease is due to an auto-immune response induced upon immunization with collagen.
The effect 539A-M0237-D02 on the arthritic index was compared to administration of methotrexate (MTX).

[8] = Direct capture (amine coupling) of antibody on CM5 chip
[9] = Fc capture (anti-Fc antibody surface)
[10] = from plot of kobs vs. the antibody concentration

inhibition model [1]: non competitive inhibitor
inhibition model (Mouse MMP-9): non competitive inhibitor
Binding of Cat-huMMP-9 [2, 8]: No
Binding of Cat-huMMP-9 ([2]; Fc capture (anti-Fc antibody surface), listed as 539A-M0237D02): Yes
Binding of huTIMP-1/cat-huMMP-9 (h-MMP-9/h-TIMP-1 complex; Direct capture): No
Binding of huTIMP-1/cat-huMMP-9 (h-MMP-9/h-TIMP-1 complex; Fc capture, listed as 539A-M0237D02): No
Binding of huTIMP-1 (human TIMP-1): No
Binding of Pro-huMMP-9 (human pro-MMP-9; listed as 539A-M0237D02): No
Binding of Pro-huMMP-9 (human pro-MMP-9; listed as M237-D02): observed neither
koff [3, 10]: ~4 10^−4 s^−1
kon [3, 10]: ~7 10^4 M^−1 s^−1
B1: M0237-D02: MMP-9/-2 dual reactive antibody inhibitor (parental); used as hIgG1 and Fab; VL/VH sequences in Example 7 (antibody, V domains shown)
VL: QDIQMTQSPATLSLSPGERATLSCRASQSISSFLAWYQQKPGQAPRLLIYDASYRATGIPARFSGSGSGTDFTLTISSLEPEDYAVYYCQQRGNWPITFGQGTRLEIKRTVAAPS
VH: EVQLLESGGGLVQPGGSLRLSCAASGFTFSQYPMWWVRQAPGKGLEWVSYIVPSGGRTYYADSVKGRFTISRDNSKNTLYLQMNSLRAEDTAVYYCAKDRAYGDYVGWNGFDYWGQGTLVTVSSASTKGPSVFPLAPSSKS
Binding of Cat-huMMP-9 [2, 9]: could be observed only if this antibody was captured via an anti-Fc antibody
Binding of huTIMP-1/cat-huMMP-9 (h-MMP-9/h-TIMP-1 complex; Fc capture): no binding was observed; also recorded: cannot bind
kobs ([3]; M0237-D02 concentration 14.4 nM): 0.0013 s⁻¹
kobs ([3]; M0237-D02 concentration 19.2 nM): 0.0019 s⁻¹
kobs ([3]; M0237-D02 concentration 28.8 nM): 0.0024 s⁻¹
kobs ([3]; M0237-D02 concentration 115.2 nM): 0.0086 s⁻¹
inhibition of gelatinolytic activity [4]: complete inhibition
inhibition of gelatinolytic activity [5]: complete inhibition
lymphocyte infiltration [6]: significantly decreased
neutrophil infiltration [6]: significantly decreased
total white blood cell infiltration [6]: significantly decreased
arthritic index [7]: decreased

Binding of Cat-huMMP-9 [2, 8]: binds
Binding of Cat-huMMP-9 ([2]; Direct capture (amine coupling) of antibody on CM5 chip, listed as 539A-M0166F10): Yes
Binding of Cat-huMMP-9 [2, 9]: binds
Binding of Cat-huMMP-9 ([2]; Fc capture (anti-Fc antibody surface), listed as 539A-M0166F10): Yes
Binding of huTIMP-1/cat-huMMP-9 (h-MMP-9/h-TIMP-1 complex; Direct capture): no binding was observed
Binding of huTIMP-1/cat-huMMP-9 (h-MMP-9/h-TIMP-1 complex; Direct capture, listed as 539A-M0166F10): No
Binding of huTIMP-1 (human TIMP-1): No
Binding of Pro-huMMP-9 (human pro-MMP-9): observed neither
Binding of Pro-huMMP-9 (human pro-MMP-9; listed as 539A-M0166F10): ~No
B2: M0166-F10: inhibitory MMP-9 binding antibody (hMMP-9 antibody inhibitor) (antibody, V domains shown)
VL: QSELTQPPSASAAPGQRVTISCSGSSSNIGSNTVTWYQKLPGTAPKLLIYNNYERPSGVPARFSGSKSGTSASLAISGLQSEDEADYYCATWDDSLIANYVFGSGTKVTVLGQPKANP
VH: EVQLLESGGGLVQPGGSLRLSCAASGFTFSPYLMNWVRQAPGKGLEWVSSIYSSGGGTGYADSVKGRFTISRDNSKNTLYLQMNSLRAEDTAVYYCARIYHSSSGPFYGMDVWGQGTTVTVSSASTKGPSVFPLAPSSKS
